Experiment [1] deals with T1, recombinant human CD73-His extracellular domain protein (soluble dimer) (human, UniProt P21589 27-547).
T1 sequence: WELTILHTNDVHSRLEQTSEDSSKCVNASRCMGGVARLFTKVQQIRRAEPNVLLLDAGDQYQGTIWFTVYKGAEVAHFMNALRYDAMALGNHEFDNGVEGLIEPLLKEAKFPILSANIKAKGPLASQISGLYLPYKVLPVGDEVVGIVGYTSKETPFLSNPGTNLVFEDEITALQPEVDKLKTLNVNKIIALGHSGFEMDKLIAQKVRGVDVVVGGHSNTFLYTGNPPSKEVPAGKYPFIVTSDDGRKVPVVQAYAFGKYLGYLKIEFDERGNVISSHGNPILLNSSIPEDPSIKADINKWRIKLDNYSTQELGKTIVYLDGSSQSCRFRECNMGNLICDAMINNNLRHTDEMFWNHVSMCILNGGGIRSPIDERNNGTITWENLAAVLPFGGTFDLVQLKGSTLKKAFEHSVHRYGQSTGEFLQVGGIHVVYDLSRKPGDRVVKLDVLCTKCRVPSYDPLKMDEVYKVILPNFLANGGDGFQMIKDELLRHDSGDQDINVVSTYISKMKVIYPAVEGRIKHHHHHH
Description: cell-based or functional assay.

Another experiment has as its target T2, human CD73 mutant 18 (human, UniProt P21589 27-549).
T2 construct: Transfected in HEK293T cells
T2 chain: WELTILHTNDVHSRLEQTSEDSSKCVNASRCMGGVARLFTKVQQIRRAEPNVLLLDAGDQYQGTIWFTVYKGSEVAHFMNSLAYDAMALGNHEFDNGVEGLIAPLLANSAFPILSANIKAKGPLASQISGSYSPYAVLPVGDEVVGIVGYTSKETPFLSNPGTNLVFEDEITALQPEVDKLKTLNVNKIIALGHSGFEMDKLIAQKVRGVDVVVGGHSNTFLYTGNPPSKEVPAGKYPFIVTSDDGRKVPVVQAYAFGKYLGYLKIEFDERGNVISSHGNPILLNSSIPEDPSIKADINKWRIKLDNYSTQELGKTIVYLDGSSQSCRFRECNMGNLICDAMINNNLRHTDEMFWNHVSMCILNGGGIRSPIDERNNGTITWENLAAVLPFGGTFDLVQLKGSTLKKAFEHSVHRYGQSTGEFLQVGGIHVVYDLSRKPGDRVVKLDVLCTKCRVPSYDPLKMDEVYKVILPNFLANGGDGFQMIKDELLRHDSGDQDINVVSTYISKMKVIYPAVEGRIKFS
Description: flow cytometry, HEK293T transfectants.

For experiment [2], the target named is T3, human CD73 expressed at the cell surface (human, UniProt P21589 27-549).
T3 construct: GPI-anchored dimer on cells; also called huCD73; cellular CD73
T3 sequence: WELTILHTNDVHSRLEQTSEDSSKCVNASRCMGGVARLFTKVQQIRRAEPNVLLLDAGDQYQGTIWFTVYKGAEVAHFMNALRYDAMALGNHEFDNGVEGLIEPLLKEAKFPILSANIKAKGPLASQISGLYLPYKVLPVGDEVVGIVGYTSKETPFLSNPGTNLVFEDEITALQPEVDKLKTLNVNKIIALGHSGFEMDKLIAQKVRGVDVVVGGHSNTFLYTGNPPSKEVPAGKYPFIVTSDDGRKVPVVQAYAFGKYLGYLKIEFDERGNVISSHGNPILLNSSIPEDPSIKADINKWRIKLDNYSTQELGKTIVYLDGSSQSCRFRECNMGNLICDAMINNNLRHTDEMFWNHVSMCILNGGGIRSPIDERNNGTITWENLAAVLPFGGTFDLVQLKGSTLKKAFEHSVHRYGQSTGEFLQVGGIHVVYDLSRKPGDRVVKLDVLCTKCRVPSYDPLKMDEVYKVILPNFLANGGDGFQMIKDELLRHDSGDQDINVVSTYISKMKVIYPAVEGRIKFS
Description: flow cytometry on MDA-MB-231 cells, medium (no APCP). The method, then: (§1) MDA-MB-231 cells are available from ATCC (reference HTB-26). 10⁵ cells resuspended in PBS/0.2% BSA/0.02% NaN3 (named “staining buffer”) are distributed into round bottom 96W-microplates. Dose-range of anti-CD73 antibodies was added to the plates and cells are incubated for 45 min at 4° C. Cells were washed three times in staining buffer by spinning plates at 400 g for 3 min at 4° C. PE-coupled goat anti-mouse or goat anti-human IgG Fc fragment secondary antibodies (Beckman Coulter) diluted in staining buffer were added to the cells and plates are incubated for 30 additional minutes at 4° C. Cells were washed three times as described above and analyzed on an Accury C6 flow cytometer equipped with an HTFC plate reader.
(§2) Cells were pre-incubated at 37° C. for 30 minutes in the presence or not of 200 μM adenosine 5′-(α,β-methylene)diphosphate (APCP), followed by addition of antibodies. APCP is an analog of ADP and binds irreversibly to the active site of CD73. When bound by APCP, CD73 changes conformation from an “open” conformation to a “closed” conformation. mAbs 11E1, 8C7, 3C12 and 6E1 bound MDA-MB-231 cells with good affinity both in the presence and absence of APCP. In the presence of APCP, the EC50 was similar to that observed in the absence of APCP. The plateau for maximal binding of 11E1, 8C7, 3C12 and 6E1 was higher in the absence of APCP than in the presence of APCP, while the inverse was true for AD2.
For orientation: In flow cytometry, cells or beads pass a laser one at a time.

The target in experiment [3] is T3, human CD73 expressed at the cell surface. Description: flow cytometry on MDA-MB-231 cells pre-incubated with 200 µM APCP. The method, then:
as §1, §2

The target is the same in experiment [4]. Description: flow cytometry titration on a human-CD73-expressing recombinant host cell line, median of fluorescence.

B1: antibody 11E1 (antibody, human IgG1, V domains shown)
VH: EIQLQQSGPELVKPGASVKVSCKASGYAFTSYNMYWVKQSHGKSLEWIGYIDPYNGGTSYNQKFKGKATLTVDKSSSTAYMHLNSLTSEDSAVYYCARGYGNYKAWFAYWGQGTLVTVSA
VL: DAVMTQTPKFLLVSAGDRVTITCKASQSVTNDVAWYQQKPGQSPKLLIYYASNRYTGVPDRFTGSGYGTDFTFTISTVQAEDLAVYFCQQDYSSLTFGAGTKLELK
notes: Produced as chimeric human IgG1 with heavy chain N297Q (Kabat EU numbering); also called 1E11
As usually defined, the EC50 is the concentration needed to bring the measured effect to its halfway point. Higher therefore signals a less potent agent. In general, EC50 (read off the curve) refers to the concentration at which the effect is half-maximal. B1: the “EC50 for CD73 blockade (enzymatic activity of soluble recombinant human CD73-his)” value (shortened to “EC50 for CD73 blockade”) in experiment [1] came out at 0.41 µg/mL. For the same molecule, the binding result with human CD73 mutant 18 is “no binding”. Also, the EC50 in experiment [2] worked out at 0.0611 µg/mL; in experiment [3] it was 0.0375 µg/mL. Further, the “EC50 (read off the curve)” value in experiment [4] was approximately 0.4 µg/mL.

B2: antibody 3C12 (antibody, human IgG1, V domains shown)
VH: QIQLQQSGPELVKPGASVKVSCKASGYAFASYNMNWVKQSHGKSLDWIGYIDPYNGGSSYNLTFKGKATLTVDKSSTTAYMHLNSLTSEDSAVYYCARGYGNYKAWFAYWGQGTLVTVSA
VL: DVVMTQTPKFLLVSAGDRVTITCKASQSVSNDVAWYQQKPGQSPKLLIYYASTRYTGVPDRFTGSGYGTDFTFTISTVQAEDLAVYFCQQDYSSLTFGAGTKLELKR
notes: Produced as chimeric human IgG1 with heavy chain N297Q (Kabat EU numbering); RTVAAP)
As for B2, the “EC50 for CD73 blockade” value in experiment [1] came to 0.41 µg/mL. The binding result in the experiment with human CD73 mutant 18 is recorded as “no binding”. The concentration for a half-maximal effect (EC50) in experiment [2] is 0.0572 µg/mL; in experiment [3], 0.0431 µg/mL. Further, the “EC50 (read off the curve)” value in experiment [4] is approximately 0.6 µg/mL.

B3: antibody 6E1 (antibody, human IgG1, V domains shown)
VH: EFQLQQSGPELVKPGASVKVSCKASGYAFTSYNMYWVKQSHGKRLEWIGYIDPYNGGSSYNQKFKGKATLTVDKSSSTAYMHLNNLTSEDSAVYYCARGYNNYKAWFAYWGQGTLVTVSA
VL: SIVMTQTPKFLLVSAGDRVTITCKASQSVTNDVAWYQQKPGQSPKLLIYYASNRYTGVPDRFTGSGYGTDFTFTISTMQAEDLAVYFCQQDYSSLTFGAGTKLELK
notes: Produced as chimeric human IgG1 with heavy chain N297Q (Kabat EU numbering)
In the case of B3, in experiment [1], the “EC50 for CD73 blockade” value is 0.33 µg/mL. In the experiment with human CD73 mutant 18, the binding result is recorded as “no binding”. In addition, the results for the EC50 in experiment [2] and in experiment [3] were 0.0584 µg/mL and 0.0395 µg/mL, respectively. Also, the “EC50 (read off the curve)” value in experiment [4] is approximately 0.4 µg/mL.
